B1: Gamma-aminobutyric acid receptor-associated protein (Homo sapiens), O95166 (parent)
chain: MKFVYKEEHPFEKRRSEGEKIRKKYPDRVPVIVEKAPKARIGDLDKKKYLVPSDLTVGQFYFLIRKRIHLRAEDALFFFVNNVIPPTSATMGQLYQEHHEEDFFLYIAYSDESVYGL

Variants of: B1
Conditions: with pcm1_human PCM1, Q15154
Sequence of pcm1_human PCM1, Q15154 (Q15154 whole entry): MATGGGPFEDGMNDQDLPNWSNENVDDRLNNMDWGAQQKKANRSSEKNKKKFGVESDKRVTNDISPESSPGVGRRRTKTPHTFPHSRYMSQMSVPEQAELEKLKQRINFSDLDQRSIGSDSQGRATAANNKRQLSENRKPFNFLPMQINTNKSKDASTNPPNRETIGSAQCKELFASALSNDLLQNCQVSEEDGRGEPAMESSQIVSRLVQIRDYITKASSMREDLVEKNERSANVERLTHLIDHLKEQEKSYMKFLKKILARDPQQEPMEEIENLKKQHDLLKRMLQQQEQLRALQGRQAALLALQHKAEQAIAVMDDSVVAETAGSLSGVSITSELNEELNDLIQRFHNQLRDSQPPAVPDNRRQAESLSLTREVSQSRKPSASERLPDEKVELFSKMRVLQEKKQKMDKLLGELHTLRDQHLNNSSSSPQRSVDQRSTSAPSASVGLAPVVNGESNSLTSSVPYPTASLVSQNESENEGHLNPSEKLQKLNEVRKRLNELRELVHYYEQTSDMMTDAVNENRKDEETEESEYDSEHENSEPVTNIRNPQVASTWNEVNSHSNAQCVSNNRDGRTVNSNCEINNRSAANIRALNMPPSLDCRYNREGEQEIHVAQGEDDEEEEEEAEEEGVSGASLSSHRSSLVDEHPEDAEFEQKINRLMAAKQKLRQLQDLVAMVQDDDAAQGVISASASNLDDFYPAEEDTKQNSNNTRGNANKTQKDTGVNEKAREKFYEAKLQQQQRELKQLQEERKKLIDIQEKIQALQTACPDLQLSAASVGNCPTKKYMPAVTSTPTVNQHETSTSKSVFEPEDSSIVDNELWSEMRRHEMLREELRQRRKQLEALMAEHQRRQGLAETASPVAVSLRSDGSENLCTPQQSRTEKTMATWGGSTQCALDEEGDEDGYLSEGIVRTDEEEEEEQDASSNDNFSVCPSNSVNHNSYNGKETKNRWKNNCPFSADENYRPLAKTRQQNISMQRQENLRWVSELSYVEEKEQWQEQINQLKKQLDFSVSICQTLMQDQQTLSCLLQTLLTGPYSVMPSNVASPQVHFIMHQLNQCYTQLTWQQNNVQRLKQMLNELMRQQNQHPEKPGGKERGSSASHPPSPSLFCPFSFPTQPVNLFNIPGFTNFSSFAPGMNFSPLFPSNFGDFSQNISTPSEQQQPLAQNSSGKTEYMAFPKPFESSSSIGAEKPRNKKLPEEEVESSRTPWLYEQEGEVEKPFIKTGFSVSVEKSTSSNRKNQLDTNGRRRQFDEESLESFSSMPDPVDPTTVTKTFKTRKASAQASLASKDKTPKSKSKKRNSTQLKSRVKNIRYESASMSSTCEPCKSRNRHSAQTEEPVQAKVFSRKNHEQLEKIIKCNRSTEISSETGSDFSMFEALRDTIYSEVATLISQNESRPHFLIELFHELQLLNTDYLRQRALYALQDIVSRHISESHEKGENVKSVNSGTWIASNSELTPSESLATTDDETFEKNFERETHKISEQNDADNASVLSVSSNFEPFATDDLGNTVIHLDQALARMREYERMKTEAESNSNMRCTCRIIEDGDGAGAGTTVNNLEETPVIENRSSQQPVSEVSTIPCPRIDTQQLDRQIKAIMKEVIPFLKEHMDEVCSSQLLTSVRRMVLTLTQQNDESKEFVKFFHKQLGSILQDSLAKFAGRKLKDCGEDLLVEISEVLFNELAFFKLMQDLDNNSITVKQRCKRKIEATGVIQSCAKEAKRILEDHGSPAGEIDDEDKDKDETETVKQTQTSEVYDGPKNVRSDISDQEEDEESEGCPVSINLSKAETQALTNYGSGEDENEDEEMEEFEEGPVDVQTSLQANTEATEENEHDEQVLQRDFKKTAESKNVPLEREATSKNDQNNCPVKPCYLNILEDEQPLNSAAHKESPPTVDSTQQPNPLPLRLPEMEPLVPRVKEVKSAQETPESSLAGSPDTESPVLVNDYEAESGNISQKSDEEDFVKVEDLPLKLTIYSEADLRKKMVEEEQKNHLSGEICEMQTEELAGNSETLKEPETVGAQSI

effect of a mutation on the interaction | Variant
with no effect | G116A

Source: IntAct's records for PubMed 28712572
